Assay [1] deals with T1, hROR2-Fc (human ROR2 Fc fusion protein) (human, UniProt Q01974 34-403, limits assumed).
T1 construct: Given both as hROR2-Fc and as Fc-hROR2, so the order of the two parts is not certain; also called Fc-hROR2; not shown: human Fc part (captured by a mouse anti-human IgG CH2 / Fcγ mAb)
Kind of assay: SPR (Biacore X100), Fc-hROR2 captured on CM5 chip via mouse anti-human Fcγ mAb, Fab as analyte, 1:1 binding model.

Assay [2] deals with T1, hROR2-Fc (human ROR2 Fc fusion protein). Kind of assay: SPR, Biacore X100; hROR2-Fc captured, Fab injected. A general note: SPR reads the build-up and loss of mass on a sensor chip optically.
Description: (§1) A CM5 chip immobilized with a mouse anti-human Fcγ mAb was used to capture Fc-hROR2.
(§2) Kinetic and thermodynamic parameters for the ROR2 binding of purified anti-ROR2 Fab variants were measured by use of SPR as previously described [29], performed on a Biacore X100 instrument using Biacore reagents and software (GE Healthcare). Briefly, a CM5 sensor chip was immobilized with a mouse anti-human IgG CH2 mAb in order to capture the hROR2-Fc antigen.
Assay [3] shares this target. Put plainly: SPR (Biacore X100), Fc-hROR2 captured on CM5 chip via mouse anti-human Fcγ mAb, Fab as analyte, 1:1 binding model. The source holds these as a separate data set.
Description: as §1, §2
The target in assay [4] is T2, human ROR1 on cells (MDA-MB-231, ROR2-, ROR1+; also 786-O, ROR2+, ROR1+) (human, UniProt Q01973 30-937).
T2 construct: whole, on cells
Put plainly: flow cytometry on MDA-MB-231 cells (ROR2-, ROR1+); Fab followed by PE-conjugated goat anti-human F(ab')2 pAbs.
Description: Cells were analyzed using a FACSCanto instrument (BD Biosciences) and FlowJo analytical software (Tree Star).

Read-outs that look alike come from different tables or passages of the source.

B1: X3.6 (Fab, V domains shown)
VH: QSVKESEGGLFKPTDTLTLTCTVSGFSLSSYGVTWVRQAPGSGLEWIGYINTAGNTYYASWAKSRSTITRNTNENTVTLKMTSLTAADTATYFCARDSRNSLNIWGPGTLVTVSS
VL: DPMLTQTPSSTSTAVGDTVTIKCQASQSISSDLSWYQQKPGQRPKLLIYQASTLASGVPSRFKGSGYGTEYTLTISGVQREDAAIYYCLGGYADASYRTAFGGGTKLEIK
notes: one of the top 12 chimeric rabbit/human anti-human ROR2 Fabs selected from the focused HCDR3 mutagenesis library
As to B1, in assay [1], binding was put at a Kd of 3.2 nM; the off-rate constant (koff) (usually the rate constant with which the complex falls apart) is 0.00019 s⁻¹; the on-rate constant (kon) – broadly, a measure of how fast the partners come together – turned out to be 60000 M⁻¹ s⁻¹.

B2: XBR2-401 Fab (parental chimeric rabbit/human anti-human ROR2 Fab) (Fab, V domains shown)
VH: QSVKESEGGLFKPTDTLTLTCTVSGFSLSSYGVTWVRQAPGSGLEWIGYINTAGNTYYASWAKSRSTITRNTNENTVTLKMTSLTAADTATYFCARDWTSLNIWGPGTLVTVSS
VL: DPMLTQTPSSTSTAVGDTVTIKCQASQSISSDLSWYQQKPGQRPKLLIYQASTLASGVPSRFKGSGYGTEYTLTISGVQREDAAIYYCLGGYADASYRTAFGGGTKLEIK
notes: Chimeric rabbit/human Fab (rabbit variable domains, human constant domains, kappa light chain, His tag)
With B2, binding in assay [1] was characterised by a dissociation constant (Kd) of 7 nM.

B3: X4.21 (Fab, V domains shown)
VH: QSVKESEGGLFKPTDTLTLTCTVSGFSLSSYGVTWVRQAPGSGLEWIGYINTAGNTYYASWAKSRSTITRNTNENTVTLKMTSLTAADTATYFCARDSGVVSLNIWGPGTLVTVSS
VL: DPMLTQTPSSTSTAVGDTVTIKCQASQSISSDLSWYQQKPGQRPKLLIYQASTLASGVPSRFKGSGYGTEYTLTISGVQREDAAIYYCLGGYADASYRTAFGGGTKLEIK
notes: as for B1
B3: in assay [1], the Kd (commonly a measure of binding affinity in units of concentration) stood at 3.4 nM, the off-rate (koff) was determined as 8.1e-05 s⁻¹ and the on-rate (kon) stood at 24000 M⁻¹ s⁻¹.

B4: X4.12 (Fab, V domains shown)
VH: QSVKESEGGLFKPTDTLTLTCTVSGFSLSSYGVTWVRQAPGSGLEWIGYINTAGNTYYASWAKSRSTITRNTNENTVTLKMTSLTAADTATYFCARDYMMNSLNIWGPGTLVTVSS
VL: DPMLTQTPSSTSTAVGDTVTIKCQASQSISSDLSWYQQKPGQRPKLLIYQASTLASGVPSRFKGSGYGTEYTLTISGVQREDAAIYYCLGGYADASYRTAFGGGTKLEIK
notes: as for B1
With B4, in assay [1], the Kd is 2.8 nM, the off-rate (koff) was determined as 0.00015 s⁻¹ and the on-rate constant (kon) stood at 53000 M⁻¹ s⁻¹.

B5: X4.3 (Fab, V domains shown)
VH: QSVKESEGGLFKPTDTLTLTCTVSGFSLSSYGVTWVRQAPGSGLEWIGYINTAGNTYYASWAKSRSTITRNTNENTVTLKMTSLTAADTATYFCARDWGNWSLNIWGPGTLVTVSS
VL: DPMLTQTPSSTSTAVGDTVTIKCQASQSISSDLSWYQQKPGQRPKLLIYQASTLASGVPSRFKGSGYGTEYTLTISGVQREDAAIYYCLGGYADASYRTAFGGGTKLEIK
notes: as for B1
B5: in assay [1], the Kd worked out at 1.3 nM, the koff was 3.8e-05 s⁻¹ and the kon was determined as 30000 M⁻¹ s⁻¹.

B6: X3.13 (Fab, V domains shown)
VH: QSVKESEGGLFKPTDTLTLTCTVSGFSLSSYGVTWVRQAPGSGLEWIGYINTAGNTYYASWAKSRSTITRNTNENTVTLKMTSLTAADTATYFCARDKGWSLNIWGPGTLVTVSS
VL: DPMLTQTPSSTSTAVGDTVTIKCQASQSISSDLSWYQQKPGQRPKLLIYQASTLASGVPSRFKGSGYGTEYTLTISGVQREDAAIYYCLGGYADASYRTAFGGGTKLEIK
notes: as for B1
As to B6, in assay [1], the dissociation constant Kd came out at 1.1 nM, the koff came to 2.7e-05 s⁻¹ and the kon stood at 26000 M⁻¹ s⁻¹.

B7: X2.7 (Fab, V domains shown)
VH: QSVKESEGGLFKPTDTLTLTCTVSGFSLSSYGVTWVRQAPGSGLEWIGYINTAGNTYYASWAKSRSTITRNTNENTVTLKMTSLTAADTATYFCARDSMSLNIWGPGTLVTVSS
VL: DPMLTQTPSSTSTAVGDTVTIKCQASQSISSDLSWYQQKPGQRPKLLIYQASTLASGVPSRFKGSGYGTEYTLTISGVQREDAAIYYCLGGYADASYRTAFGGGTKLEIK
notes: as for B1
In assay [1], B7 had a Kd of 1.5 nM, an off-rate (koff) of 0.0001 s⁻¹ and a kon of 69000 M⁻¹ s⁻¹.

B8: X2.23 (Fab, V domains shown)
VH: QSVKESEGGLFKPTDTLTLTCTVSGFSLSSYGVTWVRQAPGSGLEWIGYINTAGNTYYASWAKSRSTITRNTNENTVTLKMTSLTAADTATYFCARDYTSLNIWGPGTLVTVSS
VL: DPMLTQTPSSTSTAVGDTVTIKCQASQSISSDLSWYQQKPGQRPKLLIYQASTLASGVPSRFKGSGYGTEYTLTISGVQREDAAIYYCLGGYADASYRTAFGGGTKLEIK
notes: as for B1
In assay [1], B8 gave a Kd of 1.4 nM, a koff of 4.7e-05 s⁻¹ and an association rate constant (kon) of 33000 M⁻¹ s⁻¹.

B9: X4.9 (Fab, V domains shown)
VH: QSVKESEGGLFKPTDTLTLTCTVSGFSLSSYGVTWVRQAPGSGLEWIGYINTAGNTYYASWAKSRSTITRNTNENTVTLKMTSLTAADTATYFCARDNGSTSLNIWGPGTLVTVSS
VL: DPMLTQTPSSTSTAVGDTVTIKCQASQSISSDLSWYQQKPGQRPKLLIYQASTLASGVPSRFKGSGYGTEYTLTISGVQREDAAIYYCLGGYADASYRTAFGGGTKLEIK
notes: as for B1
Regarding B9, in assay [1], the affinity, expressed as Kd, was 10 nM; the koff was determined as 0.00034 s⁻¹; the association rate constant (kon) was 33000 M⁻¹ s⁻¹.

B10: X2.12 (Fab, V domains shown)
VH: QSVKESEGGLFKPTDTLTLTCTVSGFSLSSYGVTWVRQAPGSGLEWIGYINTAGNTYYASWAKSRSTITRNTNENTVTLKMTSLTAADTATYFCARDTMSLNIWGPGTLVTVSS
VL: DPMLTQTPSSTSTAVGDTVTIKCQASQSISSDLSWYQQKPGQRPKLLIYQASTLASGVPSRFKGSGYGTEYTLTISGVQREDAAIYYCLGGYADASYRTAFGGGTKLEIK
notes: as for B1
Turning to B10, in assay [1], the dissociation constant (Kd) came out at 1.2 nM, the koff amounted to 4e-05 s⁻¹ and the kon was 34000 M⁻¹ s⁻¹.

B11: X4.35 (Fab, V domains shown)
VH: QSVKESEGGLFKPTDTLTLTCTVSGFSLSSYGVTWVRQAPGSGLEWIGYINTAGNTYYASWAKSRSTITRNTNENTVTLKMTSLTAADTATYFCARDSRRKSLNIWGPGTLVTVSS
VL: DPMLTQTPSSTSTAVGDTVTIKCQASQSISSDLSWYQQKPGQRPKLLIYQASTLASGVPSRFKGSGYGTEYTLTISGVQREDAAIYYCLGGYADASYRTAFGGGTKLEIK
notes: as for B1
In assay [1], B11 yielded a Kd of 31 nM, a koff of 0.0017 s⁻¹ and an association rate constant (kon) of 54000 M⁻¹ s⁻¹.

B12: X3.21 (Fab, V domains shown)
VH: QSVKESEGGLFKPTDTLTLTCTVSGFSLSSYGVTWVRQAPGSGLEWIGYINTAGNTYYASWAKSRSTITRNTNENTVTLKMTSLTAADTATYFCARDGLTSLNIWGPGTLVTVSS
VL: DPMLTQTPSSTSTAVGDTVTIKCQASQSISSDLSWYQQKPGQRPKLLIYQASTLASGVPSRFKGSGYGTEYTLTISGVQREDAAIYYCLGGYADASYRTAFGGGTKLEIK
notes: as for B1
In assay [1], B12 registered a Kd of 1.9 nM, a koff of 9.2e-05 s⁻¹ and a kon of 49000 M⁻¹ s⁻¹.

B13: hX3.12.8 Fab (Fab, V domains shown)
VH: EQQVVESGGGLVQPGGSLRLSCAASGFSLSSYGVTWVRQAPGKGLEWVGYINTAGNTYYASWAKSRFTISRDNSKNTVYLQMNSLRAEDTAVYYCARDDRWSLNIWGQGTLVTVSS
VL: DPMLTQSPSSLSASVGDRVTITCQASQSISSDLSWYQQKPGKAPKLLIYQASTLASGVPSRFKGSGYGTEYTLTISSLQPEDFATYYCLGGYADASYRTAFGGGTKLEIK
notes: The text says that hX3.12.5 to hX3.12.8 all utilized VL2
B13 had a Kd in assay [2] of 5.2 nM. Further, in assay [3], the dissociation rate constant (koff) came to 0.00067 s⁻¹ and the kon was determined as 130000 M⁻¹ s⁻¹.

B14: h401.6 Fab (hX3.12.6 framework regions with parental 401 CDR sequences) (Fab, V domains shown)
VH: EVQLVESGGGLVQPGGSLRLSCAASGFTFSSYGVTWVRQAPGKGLEWVSYINTAGNTYYASWAKSRFTISRDNAKNSLYLQMNSLRAEDTAVYYCARDWTSLNIWGQGTLVTVSS
VL: DPMLTQSPSSLSASVGDRVTITCQASQSISSDLSWYQQKPGKAPKLLIYQASTLASGVPSRFKGSGYGTEYTLTISSLQPEDFATYYCLGGYADASYRTAFGGGTKLEIK
notes: this is an inference
In assay [2], B14 yielded a Kd of 16 nM. The binding result in assay [4] is given as “no binding”. In assay [3], this molecule gave an off-rate (koff) of 0.00023 s⁻¹ and a kon of 14000 M⁻¹ s⁻¹.

B15: XBR2-401-hX3.12.6 Fab (affinity matured and humanized) (Fab, V domains shown)
VH: EVQLVESGGGLVQPGGSLRLSCAASGFTFSSYGVTWVRQAPGKGLEWVSYINTAGNTYYASWAKSRFTISRDNAKNSLYLQMNSLRAEDTAVYYCARDDRWSLNIWGQGTLVTVSS
VL: DPMLTQSPSSLSASVGDRVTITCQASQSISSDLSWYQQKPGKAPKLLIYQASTLASGVPSRFKGSGYGTEYTLTISSLQPEDFATYYCLGGYADASYRTAFGGGTKLEIK
notes: Fab expressed in E. coli
B15 showed a Kd in assay [2] of 3.8 nM. Moreover, the binding result in assay [4] is recorded as “no binding”. For the same molecule, in assay [3], the koff came out at 0.00022 s⁻¹ and the on-rate (kon) turned out to be 60000 M⁻¹ s⁻¹.

B16: hX3.12.7 Fab (Fab, V domains shown)
VH: EQQVVESGGGLVQPGGSLRLSCAVSGFSLSSYGVTWVRQAPGKGLEWIGYINTAGNTYYASWAKSRFTISRNTNENTVYLQMNSLRAEDTAVYFCARDDRWSLNIWGQGTLVTVSS
VL: DPMLTQSPSSLSASVGDRVTITCQASQSISSDLSWYQQKPGKAPKLLIYQASTLASGVPSRFKGSGYGTEYTLTISSLQPEDFATYYCLGGYADASYRTAFGGGTKLEIK
notes: as for B13
Turning to B16, in assay [2], the affinity, expressed as Kd, was 1.4 nM. In assay [3], this molecule yielded a koff of 0.00016 s⁻¹ and a kon of 110000 M⁻¹ s⁻¹.

B17: XBR2-401-hX3.12.5 Fab (affinity matured and humanized) (Fab, V domains shown)
VH: EVQLVESGGGLIQPGGSLRLSCAASGFTVSSYGVTWVRQAPGKGLEWVSYINTAGNTYYASWAKSRFTISRDNSKNTLYLQMNSLRAEDTAVYYCARDDRWSLNIWGQGTLVTVSS
VL: DPMLTQSPSSLSASVGDRVTITCQASQSISSDLSWYQQKPGKAPKLLIYQASTLASGVPSRFKGSGYGTEYTLTISSLQPEDFATYYCLGGYADASYRTAFGGGTKLEIK
notes: Fab expressed in E. coli
Molecule B17 yielded a dissociation constant (Kd) in assay [2] of 2.6 nM. The binding result in assay [4] is on record as “no binding”. In assay [3], this molecule came in with a koff of 0.00048 s⁻¹ and an association rate constant (kon) of 190000 M⁻¹ s⁻¹.

These data come from US20230143003A1 (JULIUS MAXIMILIANS UNIVERSIT T W RZBURG, published 2023).
